Three substances from patent US20220259315A1 can be followed below.

In assay [1] the target is human PD-1 (cell surface) (human) (UniProt Q15116). As to the kind of experiment: column 'Affinity (nM)'; per the footnote of Table 2, FACS staining of cell surface PD-1 on activated CD4 T cells.
Assay [2] shares this target.
Assay [3] shares this target. The assay can be described thus: column 'Affinity (nM)'; per the footnote of Table 2, FACS staining of cell surface PD-1 on activated CD4 T cells (Table 5 prints 0.6 for MK3575).

Sequence of human PD-1 (cell surface) (human) (Q15116 25-288 limits assumed): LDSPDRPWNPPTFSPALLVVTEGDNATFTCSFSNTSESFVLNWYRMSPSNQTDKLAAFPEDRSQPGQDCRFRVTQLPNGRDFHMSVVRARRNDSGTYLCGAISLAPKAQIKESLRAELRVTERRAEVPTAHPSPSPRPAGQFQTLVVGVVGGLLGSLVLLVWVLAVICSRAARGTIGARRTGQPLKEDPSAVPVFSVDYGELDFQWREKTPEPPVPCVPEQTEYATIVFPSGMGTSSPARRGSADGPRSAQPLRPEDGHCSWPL

As to BMS-5C4 (antibody), the Affinity in assay [1] is 0.6 nM. The EFRA, column 'Functional effect: % CFSE low CD8 T cells' in assay [2] worked out at 175%.

Turning to IgG1 control (antibody), in assay [2], the EFRA, column 'Functional effect: % CFSE low CD8 T cells' stood at 100%. Consider MK-3475 (pembrolizumab) (antibody), for which the Affinity in assay [3] is 0.5 nM.
